Data set [1] relates to PSMA. Particulars: 1 h pi; cited from earlier work.
The target in data set [2] is T1, PSMA (Homo sapiens, UniProt Q04609).
T1 construct: expressed in transfected cells; host or cells: PC3-PIP cells (PC-3 derived, kept under puromycin selection; obtained from Dr. Warren Heston, Cleveland Clinic)
Put plainly: Competitive binding assay (IC50) towards PSMA on PC3-PIP cells. The protocol:
(§1) The half-maximal inhibitory concentration (IC50) values towards PSMA and GRPR were determined for ^natIn-6 using PC3-PIP cells. ^111In-PSMA-617 was used as a displacement radioligand for PSMA and ^111In-DOTA-PEG2-RM26 was used for GRPR, respectively. Due to the presence of both targets on PC3-PIP cells, in each experiment, the secondary target was blocked with either 1 mM solution of NOTA-PEG6-RM26 or 2 mM PSMA-11. For comparison, the IC50 values were determined for the corresponding monomers towards PSMA and GRPR under the same experimental conditions. Briefly, cell monolayers were incubated with the radioligand (1 nM) at 4 °C for 5 h in the presence of increasing concentrations of ^natIn-loaded conjugates (0–540 nM for GRPR-targeting analogs, and 0–7500 nM for PSMA-targeting, respectively). Following incubation, cells were collected and the cell-associated radioactivity was measured in an automated gamma-counter. The IC50 values were calculated by nonlinear regression using GraphPad Prism software (GraphPad Software Inc., San Diego, CA, USA).

Data set [3] relates to PC3-PIP xenografts (PSMA and GRPR expressing). Kind of data set: in vivo. Also on record: species or system BALB/c nu/nu mice. The conditions noted are these: female, BALB/c nu/nu, mouse, iv, 50 pmol/mouse. On the procedure:
(§2) All animal experiments were planned and performed in accordance with the Swedish national legislation on the protection of laboratory animals and the study plans were approved by the Ethics Committee for Animal Research in Uppsala. Euthanasia was performed by the intraperitoneal injection of a ketamine-xylazine (Ketalar-Rompun) solution (200 mg/kg ketamine/Ketalar and 20 mg/kg xylazine/Rompun), and all efforts were made to minimize suffering. Prior to implantation, female outbred BALB/c nu/nu mice (n = 30) were quarantined for 1 week. The average animal weight at the time of the experiment was 16 ± 1 g. Xenografts expressing both PSMA and GRPR were established by the subcutaneous injection of ~0.8 × 10^7 PC3-PIP cells/mouse. Tumors were grown for 7 days and the average tumor weight at the time of the experiment was 0.3 ± 0.1 g. Before the experiments, animals were randomized into groups of four. Blood, salivary glands, lung, liver, spleen, pancreas, stomach, small intestines, kidneys, muscle, bone, and tumor samples were collected for radioactivity measurements. The gastrointestinal tract with content and the rest of the carcass were also collected. The activity of samples was measured together with the injection standard.
(§3) To evaluate the biodistribution over time, three groups of mice were intravenously co-injected through the tail vein with ^111In-6 and ^68Ga-6 (300 kBq for ^68Ga-6 and 40 kBq for ^111In-6) and sacrificed 1, 3, and 24 h pi. The total injected peptide mass was adjusted to 50 pmol/mouse.

A further data set can be described thus: in vivo. Also on record: species or system BALB/c nu/nu mice. The conditions noted are these: female, BALB/c nu/nu, mouse, iv, 50 pmol/mouse, total radioactivity, Tumor-to-organ ratio. On the procedure: as §2, §3
Another data set concerns the target GRPR (Homo sapiens, UniProt P30550). The protocol: as §1

Sequence of GRPR (P30550 whole entry): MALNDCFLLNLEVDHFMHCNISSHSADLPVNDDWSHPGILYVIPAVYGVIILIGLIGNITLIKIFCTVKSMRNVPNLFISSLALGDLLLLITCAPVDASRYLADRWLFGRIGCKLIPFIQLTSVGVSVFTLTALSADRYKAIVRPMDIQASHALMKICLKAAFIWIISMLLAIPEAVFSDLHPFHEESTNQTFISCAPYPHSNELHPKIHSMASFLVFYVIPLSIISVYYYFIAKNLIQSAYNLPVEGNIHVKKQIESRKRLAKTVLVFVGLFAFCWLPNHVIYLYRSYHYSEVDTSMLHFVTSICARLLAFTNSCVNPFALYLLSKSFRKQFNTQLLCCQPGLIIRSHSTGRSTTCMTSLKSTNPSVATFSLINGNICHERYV
T1 sequence (Q04609 whole entry): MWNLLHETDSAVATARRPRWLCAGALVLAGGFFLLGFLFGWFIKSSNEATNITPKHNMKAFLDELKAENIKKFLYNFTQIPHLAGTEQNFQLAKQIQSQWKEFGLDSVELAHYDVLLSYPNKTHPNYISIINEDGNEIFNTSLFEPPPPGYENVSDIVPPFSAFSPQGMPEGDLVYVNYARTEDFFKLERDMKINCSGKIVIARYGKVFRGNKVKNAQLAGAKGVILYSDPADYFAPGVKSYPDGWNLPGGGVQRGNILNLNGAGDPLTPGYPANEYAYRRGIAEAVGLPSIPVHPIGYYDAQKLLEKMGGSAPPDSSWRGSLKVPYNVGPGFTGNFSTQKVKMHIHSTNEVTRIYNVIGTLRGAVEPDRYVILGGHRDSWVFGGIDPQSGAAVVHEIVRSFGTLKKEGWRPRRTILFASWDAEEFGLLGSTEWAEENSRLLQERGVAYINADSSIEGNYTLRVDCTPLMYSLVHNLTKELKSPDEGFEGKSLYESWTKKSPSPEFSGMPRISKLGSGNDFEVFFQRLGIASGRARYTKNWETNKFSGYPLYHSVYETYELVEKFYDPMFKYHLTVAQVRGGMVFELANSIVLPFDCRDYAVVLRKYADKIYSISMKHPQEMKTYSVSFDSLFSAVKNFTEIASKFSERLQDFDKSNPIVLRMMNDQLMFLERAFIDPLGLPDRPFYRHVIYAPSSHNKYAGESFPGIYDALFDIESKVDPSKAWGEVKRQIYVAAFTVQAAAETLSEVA

As for `O=C([O-])CN1CCN(CC(=O)[O-])CCN(CC(=O)NC[C@H]2CC[C@H](C(=O)N[C@@H](Cc3ccc4ccccc4c3)C(=O)NCCCC[C@H](NC(=O)N[C@@H](CCC(=O)O)C(=O)O)C(=O)O)CC2)CCN(CC(=O)[O-])CC1.[68Ga+3]` [^68Ga-PSMA-617], the “activity uptake in the kidneys relative to tumors” value with PSMA [1] is recorded as 8 fold.
Regarding `CC(C)C[C@H](NC(=O)C[C@H](O)[C@H](CC(C)C)NC(=O)[C@H](Cc1c[nH]cn1)NC(=O)CNC(=O)[C@@H](NC(=O)[C@H](C)NC(=O)[C@H](Cc1c[nH]c2ccccc12)NC(=O)[C@H](CCC(N)=O)NC(=O)[C@@H](Cc1ccccc1)NC(=O)CCOCCOCCOCCOCCOCCOCCNC(=O)[C@H](CCCCNC(=O)CN1CCN(CC(=O)O)CCN(CC(=O)O)CC1)NC(=O)CCCCCCCNC(=O)CC[C@H](NC(=O)N[C@@H](CCC(=O)O)C(=O)O)C(=O)O)C(C)C)C(N)=O` [compound 6, Glu-Urea-Glu-Aoc-Lys(NOTA)-(PEG)6-RM26], the “fold change of IC50 for PSMA, heterodimer vs monomer” value on PSMA [2] (dimerization effect) is listed as 5 fold.
Consider `CC(C)C[C@H](NC(=O)C[C@H](O)[C@H](CC(C)C)NC(=O)[C@H](Cc1c[nH]cn1)NC(=O)CNC(=O)[C@@H](NC(=O)[C@H](C)NC(=O)[C@H](Cc1c[nH]c2ccccc12)NC(=O)[C@H](CCC(N)=O)NC(=O)[C@@H](Cc1ccccc1)NC(=O)CCOCCOCCOCCOCCOCCOCCNC(=O)[C@H](CCCCNC(=O)CN1CCN(CC(=O)O)CCN(CC(=O)O)CC1)NC(=O)CCCCCCCNC(=O)CC[C@H](NC(=O)N[C@@H](CCC(=O)O)C(=O)O)C(=O)O)C(C)C)C(N)=O` [111In-6, metal not drawn], for which the “Tumor-to-organ ratio, Bone” value in data set [3] (1 h) is 75±50. Also, the “Tumor-to-organ ratio, Liver” value in data set [3] (1 h) was found to be 22±4; in data set [3] (3 h), 20±2. In addition, the entries for the “Tumor-to-organ ratio, Lung” value in data set [3] (1 h) and in data set [3] (3 h) were 32±3 and 64±30, respectively. In addition, the results for the “Tumor-to-organ ratio, Spleen” value in data set [3] (1 h) and in data set [3] (3 h) were 44±6 and 59±16, respectively. In addition, the “Tumor-to-organ ratio, Blood” value in data set [3] (3 h) came out at 115±13. In addition, in data set [3] (3 h), the “Tumor-to-organ ratio, Salivary glands” value was 93±10. The tissue to tissue ratio at 1 h in the data set “in vivo” (Blood) was determined as 30 ± 4; in “in vivo” (Kidneys) it was 1.2 ± 0.2; in “in vivo” (Muscle), 101 ± 25; in the data set “in vivo” (Pancreas), 3.5 ± 0.8; in “in vivo” (Salivary glands), 72 ± 13; in “in vivo” (Small intestine) it was 12 ± 4. Also, the tissue to tissue ratio at 1 h in the data set “in vivo” (Stomach) amounted to 10 ± 3. Besides, the tissue to tissue ratio at 24 h worked out at 192 ± 66 in the data set “in vivo” (Blood); 19 ± 15 in “in vivo” (Bone); 0.6 ± 0.1 in the data set “in vivo” (Kidneys); 4.8 ± 0.8 in the data set “in vivo” (Liver); 34 ± 11 in “in vivo” (Lung); 72 ± 59 in “in vivo” (Muscle). Besides, the tissue to tissue ratio at 24 h in “in vivo” (Pancreas) is 16 ± 2; in the data set “in vivo” (Salivary glands), 26 ± 4; in “in vivo” (Small intestine), 27 ± 6; in “in vivo” (Spleen), 30 ± 16; in “in vivo” (Stomach), 61 ± 52. In addition, the tissue to tissue ratio at 3 h in “in vivo” (Bone) was 52 ± 22; in the data set “in vivo” (Kidneys), 1.4 ± 0.2; in the data set “in vivo” (Muscle), 210 ± 90; in the data set “in vivo” (Pancreas), 21 ± 1; in the data set “in vivo” (Small intestine), 42 ± 9; in the data set “in vivo” (Stomach), 29 ± 12.
`O=C([O-])CN(CCN(CC(=O)[O-])Cc1cc(CCC(=O)NCCCCCC(=O)NCCCC[C@H](NC(=O)N[C@@H](CCC(=O)O)C(=O)O)C(=O)O)ccc1[O-])Cc1cc(CCC(=O)O)ccc1[O-].[68Ga+3].[OH3+]` [^68Ga-PSMA-11]: the “activity uptake in the kidneys relative to tumors” value with PSMA [1] is 20 fold.
As for `CC(C)C[C@H](NC(=O)C[C@H](O)[C@H](CC(C)C)NC(=O)[C@H](Cc1c[nH]cn1)NC(=O)CNC(=O)[C@@H](NC(=O)[C@H](C)NC(=O)[C@H](Cc1c[nH]c2ccccc12)NC(=O)[C@H](CCC(N)=O)NC(=O)[C@@H](Cc1ccccc1)NC(=O)CCOCCOCCOCCOCCOCCOCCNC(=O)[C@H](CCCCNC(=O)CN1CCN(CC(=O)O)CCN(CC(=O)O)CC1)NC(=O)CCCCCCCNC(=O)CC[C@H](NC(=O)N[C@@H](CCC(=O)O)C(=O)O)C(=O)O)C(C)C)C(N)=O` [natIn-6, metal not drawn], the IC50 on PSMA [2] (read-out: IC50 towards PSMA, PC3-PIP cells, 4 °C, 5 h, radioligand 111In-PSMA-617, GRPR blocked, natIn-loaded conjugates) was found to be 824 ± 230 nM; at GRPR (read-out: IC50 towards GRPR, PC3-PIP cells, 4 °C, 5 h, PSMA blocked, natIn-loaded conjugates), 4 ± 1 nM. The “fold change of IC50 for GRPR, heterodimer vs monomer” value at GRPR (dimerization effect) is given as 10 fold.
Consider `CC(C)C[C@H](NC(=O)C[C@H](O)[C@H](CC(C)C)NC(=O)[C@H](Cc1c[nH]cn1)NC(=O)CNC(=O)[C@@H](NC(=O)[C@H](C)NC(=O)[C@H](Cc1c[nH]c2ccccc12)NC(=O)[C@H](CCC(N)=O)NC(=O)[C@@H](Cc1ccccc1)NC(=O)CCOCCOCCOCCOCCOCCOCCNC(=O)[C@H](CCCCNC(=O)CN1CCN(CC(=O)O)CCN(CC(=O)O)CC1)NC(=O)CCCCCCCNC(=O)CC[C@H](NC(=O)N[C@@H](CCC(=O)O)C(=O)O)C(=O)O)C(C)C)C(N)=O` [68Ga-6, metal not drawn], for which, in data set [3] (1 h), the “Tumor-to-organ ratio, Blood” value is 24±3; the “Tumor-to-organ ratio, Bone” value is given as 30±11; the “Tumor-to-organ ratio, Kidneys” value was found to be 1.2±0.1; the “Tumor-to-organ ratio, Liver” value amounted to 5.9±0.9. In data set [3] (1 h), the “Tumor-to-organ ratio, Lung” value turned out to be 15±3; the “Tumor-to-organ ratio, Muscle” value was found to be 78±28; the “Tumor-to-organ ratio, Pancreas” value is reported as 4.4±0.6; the “Tumor-to-organ ratio, Salivary glands” value was found to be 43±8. Besides, in data set [3] (1 h), the “Tumor-to-organ ratio, Small intestine” value is recorded as 11±3; the “Tumor-to-organ ratio, Spleen” value is given as 16±4; the “Tumor-to-organ ratio, Stomach” value came to 10±4. In data set [3] (3 h), the “Tumor-to-organ ratio, Blood” value is on record as 44±6; the “Tumor-to-organ ratio, Bone” value was determined as 67±21; the “Tumor-to-organ ratio, Kidneys” value is on record as 0.9±0.2; the “Tumor-to-organ ratio, Liver” value amounted to 4±1. Also, in data set [3] (3 h), the “Tumor-to-organ ratio, Lung” value is recorded as 28±17; the “Tumor-to-organ ratio, Muscle” value came out at 128±57; the “Tumor-to-organ ratio, Pancreas” value amounted to 18±6; the “Tumor-to-organ ratio, Salivary glands” value came to 43±8. In data set [3] (3 h), the “Tumor-to-organ ratio, Small intestine” value is 33±27; the “Tumor-to-organ ratio, Spleen” value was found to be 11±1; the “Tumor-to-organ ratio, Stomach” value is given as 45±39.

In general, IC50 refers to the concentration that inhibits the measured activity by half.

(Values after article PMC6771040, “Bispecific GRPR-Antagonistic Anti-PSMA/GRPR Heterodimer for PET and SPECT Diagnostic Imaging of Prostate Cancer” (Cancers, 2019).)
